B1: TRIM35 (parent)
chain: PTCPVCKDRASPADLRTNHTLNNL
B2: RSPH3 (parent)
chain: QRLEEQERRHREEKERRKKQQWEI

Variants of: B1
Experiment: protein stability index of a GFP-peptide fusion (GPS, HEK-293T) (PSI 1-6); higher = more stable
Settings: c terminus: a fixed tail appended
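Further: lentivirally expressed fusions sorted by FACS into six bins by GFP to DsRed ratio, PSI derived from sequencing read proportions per bin multiplied by bin number.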

Protein stability index: each site, then its substitutions
L15: P 3.34
C6: N 4.2
A13: V 2.62, F 2.26, Q 2.55
A10: R 3.03, Q 3.01
T17: F 2.52, V 2.6
V5: S 3.43, D 4.16
R16: A 3.34, N 3.32, K 2.7
T20: G 2.76, V 3.19
R9: A 2.98, V 2.9
T2: N 3.26
N22: S 2.99
S11: E 3.51, I 2.97
N18: Q 3.3
D14: S 2.98
L24: R 1.82
C3: L 4.28, W 3.89, D 4.75
P1: R 2.56, K 2.82
H19: M 3.09
P4: A 2.72

Variants of: B2
Experiment: as above
Settings: c terminus: a fixed tail appended

Protein stability index: each site, then its substitutions
R16: V 5.18, E 5.23, T 5.11, M 5.04, I 5, H 4.77, L 4.67, C 5.12, F 4.06, Q 4.75, G 4.84, N 4.82, K 4.57, Y 4.74, P 4.97, S 4.9, D 5.37, A 4.5, W 4.02
Q6: L 4.49, D 4.6, F 4, Y 4.48, R 4.42, K 4.19, T 4.81, P 4.47, A 4.9, I 4.62, H 4.39, C 4.63, M 3.96, W 4.18, V 4.85, E 4.91, N 4.4, G 4.59, S 4.82
R11: M 4.6, I 4.22, P 5.34, A 4.91, H 4.51, C 4.83, N 5.19, Q 4.67, Y 4.68, V 4.24, F 4.64, L 4.25, E 5.19, W 4.44, G 5.08, T 4.62, S 4.35, D 4.93, K 4.23
R9: M 5.37, K 4.21, P 4.92, G 4.85, A 5.32, F 4.98, C 4.84, T 4.51, D 4.97, H 5.33, I 4.4, Q 4.63, L 4.81, Y 4.66, S 3.85, E 4.49, N 4.56, V 4.85, W 4.47
H10: R 3.69, D 4.38, I 4.5, W 4.49, Y 4.05, S 4.53, Q 5.04, G 4.51, M 4.43, E 5.26, V 4.45, A 4.94, T 4.79, N 5.08, L 4.87, P 4.44, F 4.48, K 4.84
E12: V 4.5, W 2.58, Y 3.78, L 4.42, T 4.28, N 4.57, H 4.03, K 3.58, R 4.37, D 5, I 3.64, C 4.32, Q 4.2, A 4.84, P 4.07, S 3.99, G 4.36
K14: M 4.25, V 4.72, Y 4.34, C 4.63, H 4.73, A 4.83, L 3.94, T 4.08, G 5.25, P 4.55, E 5.13, R 4.15, N 4.87, S 3.26, Q 4.26, W 4.45, D 4.65, I 3.76, F 4.69
E4: P 4.48, L 4.46, N 4.9, V 3.99, C 4.38, S 4.84, K 4.44, H 4.18, T 4.15, G 5.08, F 4.47, W 4.04, Y 3.67, D 4.56, I 4.17, R 3.84, M 4.1, A 4.21, Q 4.46
R17: A 4.94
E5: L 4.44, T 4.01, P 4.42, N 3.67, G 4.53, A 4.63, C 4.38, R 4.13, D 4.55, V 4.58, H 4.59, F 3.61, Q 5.01, S 4.5, Y 4.28, I 4.62, K 3.39, M 4.59, W 3.98
E15: S 4.58, C 3.74, K 4.74, W 3.18, F 3.92, L 4.63, I 4.09, P 3.62, G 4.36, M 4.02, R 3.75, A 4.44, H 3.91, T 4.7, N 5.12, D 4.68, Y 3.09, Q 4.85, V 4.14
E7: H 4.28, R 4.26, Y 3.81, F 4.41, I 3.86, N 4.25, P 4.75, G 3.95, C 4.15, V 4.57, M 3.38, W 4.25, A 4.36, L 4.55, T 4.95, Q 3.38, S 3.88, K 4.36, D 4.04
E13: P 4.06, F 3.72, I 3.88, Y 3.77, K 4.17, N 4.16, H 4.19, T 4.32, D 4.74, R 4.47, A 3.79, L 3.95, C 3.82, Q 4.52, V 4.14, W 3.34, G 4.55, M 3.99, S 4.02
R8: Y 4.24, N 3.93, W 4.09, L 3.69, M 3.7, I 4.42, Q 4.61, F 4.28, D 4.79, V 5.02, A 4.86, H 4.57, E 4.95, P 5.03, G 5.02, K 4.33, T 4.97, S 4.64, C 3.71
Q1: E 4.86, L 4.35, Y 4.42, R 4.49, D 4.59, K 4.29, P 5.21, W 4.13, H 5.33, N 4.5, V 4.81, M 4.76, T 4.78, I 4.4, S 4.66, G 4.83, C 3.83, F 4.28, A 4.69
L3: Q 4.72, F 4.2, M 4.81, G 4.75, P 5, N 4.59, A 4.37, S 4.91, C 4.36, W 4.06, E 5.28, Y 4.43, R 5.08, D 4.82, H 4.54, K 4.4, I 5, V 4.82, T 4.99
R2: S 5, T 5.02, M 4.06, V 4.47, Q 4.94, W 3.79, K 4.26, I 3.83, Y 4.07, F 4.48, P 4.1, G 4.54, A 4.57, E 5.24, N 5.06, D 5.14, C 4.58, H 4.53, L 4.63

Source: the supplement of paper PMC10567573
